Measurements as given in US20250163127A1.
Where “and” joins values, the source holds several entries; their conditions need not be identical. Identical values can stand only once.

The substances below were run against CD28 (human) (UniProt P10747) (assay: flow cytometry, transfected cells).

Chain of WT CD80 ECD-Fc (R&D) (Fc fusion) (chain): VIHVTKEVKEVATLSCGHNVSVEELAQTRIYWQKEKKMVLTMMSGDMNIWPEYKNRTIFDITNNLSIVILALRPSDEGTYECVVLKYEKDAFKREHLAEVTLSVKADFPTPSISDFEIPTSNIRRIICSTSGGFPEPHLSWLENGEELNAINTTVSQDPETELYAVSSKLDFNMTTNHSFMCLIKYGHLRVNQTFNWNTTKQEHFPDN

MFI	MFI ratio to WT (ΔWT)	Substance
98700 MFI		ICOSL-Fc N52G/Q100A (Fc fusion)
142000 MFI		ICOSL-Fc N52H/N57Y/Q100K (Fc fusion)
142000 MFI	6.4 fold	ICOSL-Fc N52H/N57Y/Q100R (Fc fusion)
133000 MFI		ICOSL-Fc N52R/N57Y/Q100P (Fc fusion)
98200 MFI		ICOSL-Fc N52S/N57A/Q100A (Fc fusion)
71900 MFI		ICOSL-Fc N52S/N57L/Q100G (Fc fusion)
88700 MFI		ICOSL-Fc N52T/N57K/Q100P (Fc fusion)
161000 MFI		ICOSL-Fc N52T/N57Y/Q100A (Fc fusion)
132000 MFI		ICOSL-Fc N52V/N57L/Q100A (Fc fusion)

What follows are substances tested against CTLA-4 (Homo sapiens (Human)) (UniProt P16410) (assay: flow cytometry, transfected cells).
Chain of CTLA-4 (Homo sapiens (Human)) (P16410 36-223): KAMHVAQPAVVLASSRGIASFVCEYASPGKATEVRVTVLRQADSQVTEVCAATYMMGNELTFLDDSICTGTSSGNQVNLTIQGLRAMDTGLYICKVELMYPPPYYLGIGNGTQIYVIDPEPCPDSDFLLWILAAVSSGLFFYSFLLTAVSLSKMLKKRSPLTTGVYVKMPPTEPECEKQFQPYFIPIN

MFI	MFI ratio to WT (ΔWT)	Substance
606000 MFI		ICOSL ECD-Fc N52H/N57Y/Q100R/F172S (Fc fusion)
817000 MFI	2.47 fold	ICOSL-Fc N52H/N57Y/Q100R (Fc fusion)
502000 MFI		ICOSL-Fc N52R/N57Y/Q100P (Fc fusion)
233000 MFI		ICOSL-Fc N52S/N57A/Q100A (Fc fusion)
79400 MFI		ICOSL-Fc N52S/N57L/Q100G (Fc fusion)
78300 MFI		ICOSL-Fc N52T/N57K/Q100P (Fc fusion)
341000 MFI		ICOSL-Fc N52T/N57Y/Q100A (Fc fusion)
252000 MFI		ICOSL-Fc N52V/N57L/Q100A (Fc fusion)

Each substance was assayed against ICOS (Homo sapiens (Human)) (UniProt Q9Y6W8) (assay: flow cytometry, transfected cells).
Chain of ICOS (Homo sapiens (Human)) (Q9Y6W8 21-199 limits assumed): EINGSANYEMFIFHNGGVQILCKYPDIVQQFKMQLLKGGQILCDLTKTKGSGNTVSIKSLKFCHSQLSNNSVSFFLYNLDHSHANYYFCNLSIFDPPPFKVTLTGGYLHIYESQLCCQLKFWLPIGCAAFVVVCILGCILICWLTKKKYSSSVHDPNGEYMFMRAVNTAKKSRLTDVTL

MFI	MFI ratio to WT (ΔWT)	Substance
238000 MFI		ICOSL ECD-Fc N52H/N57Y/Q100R/F172S (Fc fusion)
303000 MFI		ICOSL-Fc N52G/Q100A (Fc fusion)
214000 MFI		ICOSL-Fc N52H/N57Y/Q100K (Fc fusion)
200000 MFI	0.94 fold	ICOSL-Fc N52H/N57Y/Q100R (Fc fusion)

These substances were tested against CD112R (human) (UniProt Q6DKI7) (assay: flow cytometry, transfected HEK293).
Chain of CD112R (human) (Q6DKI7 whole entry): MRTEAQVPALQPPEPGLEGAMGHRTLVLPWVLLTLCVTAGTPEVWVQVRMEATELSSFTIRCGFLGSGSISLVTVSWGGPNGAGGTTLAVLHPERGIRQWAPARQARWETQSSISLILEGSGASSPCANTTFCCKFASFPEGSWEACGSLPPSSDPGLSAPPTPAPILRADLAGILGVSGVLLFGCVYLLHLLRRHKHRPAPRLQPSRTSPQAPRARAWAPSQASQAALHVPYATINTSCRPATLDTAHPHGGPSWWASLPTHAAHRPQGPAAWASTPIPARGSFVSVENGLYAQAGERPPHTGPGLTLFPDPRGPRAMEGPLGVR

MFI at 20 nM	Substance
1140 and 1110	CD112 IgV-Fc A112V (Fc fusion)

What follows are substances tested against T1, TIGIT (human) (UniProt Q495A1) (assay: flow cytometry, transfected HEK293).
T1 sequence: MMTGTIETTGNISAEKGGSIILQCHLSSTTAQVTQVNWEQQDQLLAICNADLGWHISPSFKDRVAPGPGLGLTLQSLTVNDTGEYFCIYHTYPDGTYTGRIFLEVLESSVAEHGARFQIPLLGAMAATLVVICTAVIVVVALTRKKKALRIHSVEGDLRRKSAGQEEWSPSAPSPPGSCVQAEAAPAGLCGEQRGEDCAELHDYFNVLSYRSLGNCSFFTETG

MFI at 20 nM	Substance
69700	CD112 IgV-Fc A112V (Fc fusion)

Each substance was assayed against CD28 (human) (UniProt P10747) (assay: flow cytometry, Jurkat cells (CD28)).

MFI at 33.3 nM	Substance
314 MFI	CD80 variant A26E/E35D/M43I/M47L/L85Q/K86E/R94W IgV-Fc (Fc fusion)
7540 MFI	CD80 variant E35D/D46V/M47I/A71G/F92V IgV-Fc (Fc fusion)
300 MFI	CD80 variant E35D/M47L/A71G/L97Q IgV-Fc (Fc fusion)
305 MFI	CD80 variant E35D/M47V/T62A/A71G/V83A/Y87H/L97M IgV-Fc (Fc fusion)
282 MFI	CD80 variant Q27H/E35D/M47L/L85Q/R94Q/E95K IgV-Fc (Fc fusion)
303 MFI	CD80 variant Q33R/E35D/D46E/M47I IgV-Fc (Fc fusion)
258 MFI	CD80 variant Q33R/E35D/K37E/M47V/L85Q IgV-Fc (Fc fusion)
266 MFI	CD80 variant S15P/Q33L/E35D/M47L/L85Q IgV-Fc (Fc fusion)
7630 MFI	WT CD80 ECD-Fc (R&D) (Fc fusion)

Molecular target: CD28 (human) (UniProt P10747)
Test: flow cytometry, Jurkat cells (CD28)
Remark: another data set of the same source

MFI at 33.3 nM	Substance
18000 MFI	WT CD80 ECD-Fc (R&D) (Fc fusion)

The substances below were run against CD28 (human) (UniProt P10747) (assay: flow cytometry, cells expressing CD28).

MFI	parental ratio	Substance
39 MFI		variant CD80 A91G/S103P (Fc fusion)
26 MFI		variant CD80 E24G/L25P/L70Q/A91G/I118V/T120S/N152T (Fc fusion)
98 MFI	1.03	variant CD80 I67T/L70Q/A91G/I118V/T120S (Fc fusion)
8 MFI		variant CD80 K36E/I67T/L70Q/A91G/I118V/T120S/T130A/N152T (Fc fusion)
33 MFI		variant CD80 L65H/D90G/T110A/F116L (Fc fusion)
61 MFI		variant CD80 M38T/L70Q/E77G/A91G/I118V/T120S/T130A/N152T (Fc fusion)
5 MFI		variant CD80 M38V/T41D/M43I/W50G/D76G/V83A/K89E/I118V/T120S/I126V/T130A (Fc fusion)
66 MFI		variant CD80 R29H/E52G/D90N/I118V/T120S/T130A (Fc fusion)
100 MFI		variant CD80 R29H/E52G/L70R/E88G/A91G/T130A (Fc fusion)
32 MFI	0.34	variant CD80 T28S/L70Q/A91G/E95K/I118V/T120S/I126V/T130A/K169E (Fc fusion)
105 MFI		variant CD80 V20L/L70Q/A91S/I118V/T120S/T130A (Fc fusion)

What follows are substances tested against PD-L1 (human) (assay: flow cytometry, cells expressing PD-L1).

MFI	parental ratio	Substance
9 MFI		variant CD80 A91G/S103P (Fc fusion)
5 MFI	0.08	variant CD80 I67T/L70Q/A91G/I118V/T120S (Fc fusion)
5 MFI	0.08	variant CD80 R29H/E52G/L70R/E88G/A91G/T130A (Fc fusion)
6 MFI	0.08	variant CD80 T28S/L70Q/A91G/E95K/I118V/T120S/I126V/T130A/K169E (Fc fusion)
9 MFI	0.13	variant CD80 V20L/L70Q/A91S/I118V/T120S/T130A (Fc fusion)

The substances below were run against CTLA-4 (human) (assay: flow cytometry, cells expressing CTLA-4).

MFI	parental ratio	Substance
38 MFI		variant CD80 E24G/L25P/L70Q/A91G/I118V/T120S/N152T (Fc fusion)
160 MFI	0.77	variant CD80 I67T/L70Q/A91G/I118V/T120S (Fc fusion)
121 MFI		variant CD80 L65H/D90G/T110A/F116L (Fc fusion)
141 MFI		variant CD80 R29H/E52G/D90N/I118V/T120S/T130A (Fc fusion)
119 MFI	0.57	variant CD80 R29H/E52G/L70R/E88G/A91G/T130A (Fc fusion)
65 MFI	0.31	variant CD80 T28S/L70Q/A91G/E95K/I118V/T120S/I126V/T130A/K169E (Fc fusion)
200 MFI	0.96	variant CD80 V20L/L70Q/A91S/I118V/T120S/T130A (Fc fusion)

These substances were tested against PD-L1 (human) (assay: flow cytometry, CHO cells expressing PD-L1).
Target sequence in this assay (chain, as listed by the source): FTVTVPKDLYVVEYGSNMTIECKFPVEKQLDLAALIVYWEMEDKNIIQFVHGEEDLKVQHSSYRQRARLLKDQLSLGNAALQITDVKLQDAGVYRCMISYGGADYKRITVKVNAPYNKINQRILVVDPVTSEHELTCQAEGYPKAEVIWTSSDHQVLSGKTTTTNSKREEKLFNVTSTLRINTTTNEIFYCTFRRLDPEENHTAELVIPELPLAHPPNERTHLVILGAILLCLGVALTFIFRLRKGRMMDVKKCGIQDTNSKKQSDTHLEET

MFI at 33.3 nM	Substance
11900 MFI	WT CD80 ECD-Fc (R&D) (Fc fusion)

The substances below were run against CTLA4 (human) (assay: flow cytometry, CHO cells stably expressing CTLA4).
Chain of CTLA4 (human) (chain, as listed by the source): as the sequence (P16410 36-223) above

MFI at 33.3 nM	Substance
2950 MFI	CD80 variant A26E/E35D/M43I/M47L/L85Q/K86E/R94W IgV-Fc (Fc fusion)
226000 MFI	CD80 variant E35D/M47L/A71G/L97Q IgV-Fc (Fc fusion)
18100 MFI	CD80 variant E35D/M47V/T62A/A71G/V83A/Y87H/L97M IgV-Fc (Fc fusion)
3560 MFI	CD80 variant Q33R/E35D/D46E/M47I IgV-Fc (Fc fusion)

The substances below were run against PD-L1 (human) (assay: flow cytometry, CHO cells stably expressing PD-L1).

MFI at 33.3 nM	Substance
77500 MFI	CD80 variant E35D/M47V/T62A/A71G/V83A/Y87H/L97M IgV-Fc (Fc fusion)
36100 MFI	CD80 variant Q27H/E35D/M47L/L85Q/R94Q/E95K IgV-Fc (Fc fusion)
44400 MFI	CD80 variant Q33R/E35D/K37E/M47V/L85Q IgV-Fc (Fc fusion)
7940 MFI	WT CD80 ECD-Fc (R&D) (Fc fusion)
